The values below come from patent US20070014720A1.

Assay [1] deals with human CD20 (human) (UniProt P11836). Kind of assay: FACS KD on SB cells expressing CD20 (GMF against mAb concentration, nonlinear fit).
The target is the same in assay [2]. Kind of assay: cell-based or functional assay.

human CD20 (human), sequence (P11836 whole entry): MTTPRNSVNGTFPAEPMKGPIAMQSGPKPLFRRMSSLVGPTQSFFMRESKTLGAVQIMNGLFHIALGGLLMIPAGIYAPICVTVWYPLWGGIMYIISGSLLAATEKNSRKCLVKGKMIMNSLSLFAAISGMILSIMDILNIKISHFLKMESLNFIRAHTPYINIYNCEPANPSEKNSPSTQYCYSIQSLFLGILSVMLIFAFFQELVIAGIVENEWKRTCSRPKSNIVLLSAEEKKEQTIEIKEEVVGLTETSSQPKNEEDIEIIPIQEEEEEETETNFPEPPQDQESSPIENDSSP

As for “B1 antibody (Beckman Coulter, Miami, Fla.)”, in assay [1], the Kd (commonly the concentration at which binding is half-saturated) came out at 34.1 nM.
For “Rituxan (Rituximab, Genentech Inc.) (antibody)”, in assay [2], the % Lysis Daudi 0.001 µg/ml ADCC was 33%, the % Lysis Daudi 1 µg/ml ADCC is 95%, the % Lysis Raji 0.001 µg/ml ADCC is 16% and the % Lysis Raji 1 µg/ml ADCC is 62%. In assay [2], this substance returned a % Lysis Ramos 0.001 µg/ml ADCC of 5%, a % Lysis Ramos 1 µg/ml ADCC of 78%, an EC50 µg/ml Daudi CDC of 1.56 µg/mL and an EC50 µg/ml Raji CDC of 0.31 µg/mL. In assay [2], the EC50 µg/ml Ramos Apoptosis Alamar Blue is 0.222 µg/mL, the EC50 µg/ml Ramos Apoptosis Annexin V was 2.59 µg/mL, the EC50 µg/ml Ramos Apoptosis Cell Titer Glo was 0.576 µg/mL and the EC50 µg/ml Ramos Apoptosis WST-1 stood at 0.0326 µg/mL. The substance further had an EC50 µg/ml Ramos CDC in assay [2] of 0.43 µg/mL. The Kd in assay [1] was 8.1 nM.
